Measurements published in publication PMC11414720.

Biological target: TMED2 (overexpressed) (UniProt Q15363)
Assay: SEC; gel filtration of overexpressed protein in octyl-β-glucoside, a harsher detergent

TMED2 (overexpressed), Q15363 21-201 (receptor; other documents disagree on this pair), sequence (Q15363 21-201): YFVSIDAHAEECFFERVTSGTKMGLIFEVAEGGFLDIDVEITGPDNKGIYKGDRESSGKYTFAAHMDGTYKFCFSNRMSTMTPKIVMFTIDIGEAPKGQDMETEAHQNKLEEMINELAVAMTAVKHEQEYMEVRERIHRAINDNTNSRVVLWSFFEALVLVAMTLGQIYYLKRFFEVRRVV

stoichiometry N: 2
Substance: TMED2 (overexpressed), Q15363 21-201 (receptor; other documents disagree on this pair)
